Test results taken from patent US20240409645A1 (DUALYX, published 2024).
Where a chain is given by its changes, count along the chain named. Blank lines part the entries; values can stand above or below the binder they belong to.

Assays:
human IL-2Rα [1] = target: T1, human IL-2Rα (human, UniProt P01589 22-240, limits assumed); assay: ELISA, P.E. on coated antigen
T1 construct: recombinant protein; also called hu IL-2R; human IL-2Ra
T1 sequence: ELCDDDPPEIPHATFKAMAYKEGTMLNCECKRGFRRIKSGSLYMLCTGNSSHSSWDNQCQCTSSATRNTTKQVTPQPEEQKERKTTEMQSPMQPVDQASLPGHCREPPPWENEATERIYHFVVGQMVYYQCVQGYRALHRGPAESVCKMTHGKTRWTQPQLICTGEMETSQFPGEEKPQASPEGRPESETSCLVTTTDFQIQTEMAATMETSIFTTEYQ
Procedure: In a binding ELISA, human or mouse IL-2Rα, IL-2Rβ and IL-2Rγ proteins were coated directly on maxisorp microtiter plates overnight at 4° C. Free binding sites were blocked using 4% Marvel in PBS for 1 hour. Next, 1:5 dilution of P.E. in 1% Marvel/PBS were added to wells and incubated for 1 hour. […] Binding specificity was determined based on O.D. at 450 nm values compared to negative controls.

human IL-2Rα [2] = target: T1, human IL-2Rα; assay: SPR, P.E. on immobilised antigen
Procedure: SPR was performed to determine dissociation rates using Biacore 3000 instrument (GE Healthcare). Briefly, human and mouse IL-2R proteins were immobilized on carboxylmethyl dextran sensor chip (CM5) at approximately 2500 RUs using amine coupling in acetate buffer (GE Healthcare). The VHH-containing P.E. were loaded with a flow rate of 30 uL/min and the off-rates were measured over a 120s period.

B2: 10-MP05F03 (VHH)
VHH: QVQLVESGGGLVQAGGSLRLSCAASGIPFDNYAMGWFRQAPGKEREFVAARDLEGIITRYGDSVKGRFTISRGNAKNTVFLQMNSLKPEDTAVYYCAARDGGVVAGSRSSAQYNYWGQGTQVTVSS
notes: periplasmic extract; also called FJ1427_P035MP05F03
- OD (PE binding ELISA) (human IL-2Rα [1]): 2.46 OD450 nm
- koff (human IL-2Rα [2]): 0.000639 s⁻¹

B3: FJ1427_P035MP01D09 (VHH)
VHH: QVQLVESGGGLVQPGGSLRLSCAASGFTFSNNFMSWVRQAPGKGLEWVSTISYGGESTTYAESVKGRFTISRDNAKNTLYLQMNNLKPEDTAVYYCAKATSYDSIRSGSRGQGTQVTVSS
notes: periplasmic extract; also called clone nr; 68
- OD (PE binding ELISA) (human IL-2Rα [1]): 2.57 OD450 nm
- koff (human IL-2Rα [2]): 0.00212 s⁻¹

B6: 8-MP01C12 (VHH)
VHH: B3 VHH with A24T, W47F, S63A, V93I, D103T, S107G, G108A, S109P
notes: periplasmic extract; also called FJ1427_P035MP01C12
- OD (PE binding ELISA) (human IL-2Rα [1]): 2.53 OD450 nm
- koff (human IL-2Rα [2]): 0.000383 s⁻¹

B7: FJ1427_P035MP01D03 (VHH)
VHH: B3 VHH with Q1E, A24T, S30R, K43E
notes: periplasmic extract; also called clone nr; 20
- OD (PE binding ELISA) (human IL-2Rα [1]): 2.59 OD450 nm
- koff (human IL-2Rα [2]): 0.00189 s⁻¹

B9: FJ1427_P035MP01C03 (VHH)
VHH: B3 VHH with Q1E, A24T, S30R
notes: periplasmic extract; also called clone nr; 19
- OD (PE binding ELISA) (human IL-2Rα [1]): 2.84 OD450 nm
- koff (human IL-2Rα [2]): 0.00144 s⁻¹

B10: 2-MP01A02 (VHH)
VHH: B3 VHH with A24T, S30R
notes: periplasmic extract; also called FJ1427_P035MP01A02
- OD (PE binding ELISA) (human IL-2Rα [1]): 2.62 OD450 nm
- koff (human IL-2Rα [2]): 0.00153 s⁻¹

B12: FJ1427_P035MP01E10 (VHH)
VHH: QVQLVESGGGLVQAGDSLRLSCAASGRSFRNYILAWYRQAPGKEREFLAAISWLDGTLYADSVEDRFTISRDNPKNTVHLQMDSLKPEDTAVYYCAADRGPVRPVLAPDVDYWGQGTQVTVSS
notes: periplasmic extract; also called clone nr; 77
- OD (PE binding ELISA) (human IL-2Rα [1]): 2.78 OD450 nm
- koff (human IL-2Rα [2]): 0.00119 s⁻¹

B13: FJ1427_P035MP01E02 (VHH)
VHH: B12 VHH with S84N
notes: periplasmic extract; also called clone nr; 13
- OD (PE binding ELISA) (human IL-2Rα [1]): 2.86 OD450 nm
- koff (human IL-2Rα [2]): 0.00128 s⁻¹

B14: FJ1427_P035MP01D11 (VHH)
VHH: B12 VHH with V2L, L34M
notes: periplasmic extract; also called clone nr; 84
- OD (PE binding ELISA) (human IL-2Rα [1]): 3.21 OD450 nm
- koff (human IL-2Rα [2]): 0.0027 s⁻¹

B15: FJ1427_P035MP01A01 (VHH)
VHH: B12 VHH with Q1E, S84N, T120S
notes: periplasmic extract; also called clone nr
- OD (PE binding ELISA) (human IL-2Rα [1]): 2.85 OD450 nm
- koff (human IL-2Rα [2]): 0.00112 s⁻¹

B17: FJ1427_P035MP01B12 (VHH)
VHH: B12 VHH with V5Q, L58F, D61N, D65G, S84G, S122A
notes: periplasmic extract; also called clone nr; 90
- OD (PE binding ELISA) (human IL-2Rα [1]): 3.05 OD450 nm
- koff (human IL-2Rα [2]): 0.00144 s⁻¹

Next, values leading:

- OD (PE binding ELISA) (human IL-2Rα [1]): 2.47 OD450 nm
B1: FJ1427_P035MP01H10 (VHH)
VHH: QVQLVESGGGLVETGGSLRLSCAASGITFNDHTMAWFRQAPGKEREFVAARDWSDIITRYASSVKGRFTISRDNAGNTGFLQMNSLRPEDTAVYYCAAREGGVVAGVRSGAPYDYWGQGTQVTVSS
notes: periplasmic extract; also called clone nr; 80

- OD (PE binding ELISA) (human IL-2Rα [1]): 2.87 OD450 nm
- koff (human IL-2Rα [2]): 0.00327 s⁻¹
B4: FJ1427_P035MP01F03 (VHH)
VHH: B3 VHH with I105V
notes: periplasmic extract; also called clone nr; 22

- OD (PE binding ELISA) (human IL-2Rα [1]): 2.65 OD450 nm
- koff (human IL-2Rα [2]): 0.00276 s⁻¹
B5: FJ1427_P035MP01H05 (VHH)
VHH: B3 VHH with Q1E, G54F, E56D, Q112R
notes: periplasmic extract; also called clone nr; 40

- OD (PE binding ELISA) (human IL-2Rα [1]): 2.69 OD450 nm
- koff (human IL-2Rα [2]): 0.000704 s⁻¹
B8: FJ1427_P035MP01E11 (VHH)
VHH: B3 VHH with G54F, E56D, T59R, A75E, Q112R
notes: periplasmic extract; also called clone nr; 85

- OD (PE binding ELISA) (human IL-2Rα [1]): 2.79 OD450 nm
- koff (human IL-2Rα [2]): 0.00107 s⁻¹
B11: FJ1427_P035MP01G04 (VHH)
VHH: B3 VHH with G54F, E56D, T59R, A75E, Y80H, Q112R
notes: periplasmic extract; also called clone nr; 31

- OD (PE binding ELISA) (human IL-2Rα [1]): 2.61 OD450 nm
- koff (human IL-2Rα [2]): 0.00235 s⁻¹
B16: FJ1427_P035MP01E04 (VHH)
VHH: B12 VHH with A24V, L58F, D61N, D65G, S84G, S122A
notes: periplasmic extract; also called clone nr; 29
